Where two headings read alike, the source gives them in different places. Where a SMILES comes first, the peptide text is derived from it. The star is where a group is joined. X4 = CC[C@@]1(O)C(=O)OCc2c1cc1n(c2=O)Cc2cc3cc(OC(=O)[C@H]4CC[C@H](CNC(=O)C5CCC(CN6C(=O)CC(*)C6=O)CC5)CC4)ccc3nc2-1; X1 = CCc1c2c(nc3ccc(OC(=O)CCCCCN4C(=O)CC(*)C4=O)cc13)-c1cc3c(c(=O)n1C2)COC(=O)[C@]3(O)CC
Key:
[1] = Stability of conjugates in citrated plasma at 37° C. (half life time, HPLC fluorescence); type: in vitro ADME; settings: dog
Description: (§1) The stability of the conjugates was tested in citrated plasma (10% (v/v) sodium citrate buffer, 0.106M) from different species (see Table 1 below). The conjugates at 2.55 μM were incubated at 37° C. in plasma. Samples were analysed using the HPLC fluorescence method described below (see chromatographic equipment and conditions) following TFA/acetonitrile extraction and the amount of free camptothecin, analogs or derivatives thereof (e.g. SN38) released by the conjugates was measured.
(§2) Chromatographic equipment and conditions: 150 μL of each sample were placed in 1.5 mL micro-centrifuge tubes. 450 μL of 5% (v/v) TFA in H2O was added to each tube and the mixture was vortexed for 5 seconds. Samples were then centrifuged at 16000 g, 3 minutes at +4° C. 100 μL of supernatant were placed in 1.5 mL micro-centrifuge tubes. Methanol (100 μL) was then immediately added and vortexed for 5 seconds. Samples were then centrifuged at 16000 g, 3 minutes at room temperature. 150 μL of supernatant were recovered for HPLC analysis. Conjugates, metabolites and camptothecin derivative (i.e. SN38) were separated by high-performance liquid chromatography (HPLC; Agilent 1100 series equipped with a fluorescence detector) using a 4.6×100 mm ([…] particle size) Luna C18(2) column (Phenomenex ref. 00D-4251-E0, Le Pecq, France). The aqueous component of the mobile phase (A) was 0.1% (v/v) TFA in water. The organic modifier (B) was acetonitrile containing 0.1% (v/v) TFA. For the conjugate and its metabolites an elution gradient increasing linearly the proportion of B from 15 to 37% in 2 min, from 37 to 47% in 6 min, followed by 2 min at 90% was applied with a constant flow rate of 1.2 mL/min. The proportion of B was then returned to the initial condition for 3.0 min.
(§3) The half life time of conjugate corresponds to the time necessary to have 50% by mole of free camptothecin, analogs or derivatives thereof released by the conjugates of the invention. In human plasma, the half life time of conjugate DPV1047-linker #1-SN38 (less than 5 mins) was shorter than that of conjugate DPV1047-linker #2-SN38 (6-7 mins), which, in turn, was shorter than that of conjugate DPV1047-linker #3-SN38 (12 mins).
(§4) As in Example II, the stability of these conjugates was tested in either human or dog plasma. Following incubation at 37° C., samples were analyzed after a TFA acetonitrile extraction by the HPLC fluorescence method described in Example II. The in vitro cytotoxicity (IC50) of these compounds was also evaluated.

[2] = as above; type: in vitro ADME, human; settings: human, plasma
Description: as §1, §2, §3, §4

[3] = In vitro human serum stability study; type: in vitro ADME
Description: Peptidic drug delivery systems have also been described in PCT patent application published under No WO 00/01417 filed by […] aiming to facilitate the delivery of different drugs, such as the 10-Hydroxycamptothecin. This patent application describes the use of homeobox peptide derived from the Drosophila antennapedia homoprotein (preferably a cell-penetrating peptide (CPP) named penetratin) for conjugation to a number of cytotoxic drugs, thus enhancing their delivery and/or therapeutic effect. […] Consequently the applicant has performed in vitro human serum stability studies using the conjugate described in example 29 of this patent application No WO 00/01417.

[4] = Toxicity study in the beagle dog following intravenous infusion
Description: Adult female and male beagle dogs were individually housed with free access to tap water. A pellet diet was distributed daily.
Dogs (1 dog for each drug and dose) were infused intravenously through the cephalic or saphenous vein. These intravenous infusions were made using a single-use catheter (Intraflon®) and a plastic syringe connected to a syringe pump. During the injection, the animals were restrained in a hammock.
Conjugates were dissolved in water for injection (10% of final volume) and diluted with 0.9% NaCl to their final concentration. The volume administered to each animal was adjusted according to body weight.
Clinical signs, hematological and intestinal toxicities were monitored during a period of 15 days after infusion. Each animal was checked at least twice a day for mortality or signs of morbidity.
The body weight of each animal was recorded on the day −1, 4, 10 and 13.
Peripheral blood samples were taken into EDTA tubes for the determination of following parameters on days −1, 5, 11 and 14: erythrocytes, hemoglobin, mean cell volume, packed cell volume, mean cell hemoglobin concentration, mean cell hemoglobin, thrombocytes, leucocytes, differential white cell count with cell morphology.

[5] = Stability of conjugates in citrated plasma at 37° C. (half life time, HPLC fluorescence); type: in vitro ADME; settings: DPV1047-linker-SN38, 2.55 μM
Description: as §1, §2, §3

[6] = Pharmacokinetic study in the dog (blood, HPLC fluorescence); type: in vivo; settings: dog blood; non-toxic doses (DPV1047-BCH-SN38 ≦20 mg/kg, DPV1047-MIC-SN38 ≦50 mg/kg)
Description: Peripheral blood samples were taken at different times following infusion for pharmacokinetic analysis.
Blood samples (2.5 mL) were collected in 5 mL in trisodium citrate tubes (Sarstedt S-Monovette® 9NC) containing 2.5 mL of 5% TFA (v/v) and vortexed for 5 seconds before storage at −80° C. (for less than two weeks).
Samples were then analyzed after a TFA and acetonitrile extraction by an HPLC fluorescence method, described below. […] Whole blood samples were acidified with TFA to protect the ester link of the conjugate against hydrolysis and allow protein precipitation to improve conjugate and SN38 recovery.
Five hundred microliters of each sample were then placed in 1.5 mL micro-centrifuge tubes to and centrifuged at 16000×g 3 min at +4° C. […] Methanol (100 μL) was then immediately added and the mixture stirred vigorously (vortex) for 5 seconds. Samples were then centrifuged at 16000×g, 3 min at room temperature.
One hundred and fifty microliters of the supernatant was recovered for HPLC analysis.
DPV1047-BCH-SN38 and its metabolite SN38 were separated by high-performance liquid chromatography (HPLC Agilent 1100 with a fluorescence detector) using the following method: […]

[7] = background statement; cited from earlier work
[8] = tested on: NCI-H460 human epithelial lung carcinoma cells; assay: In vitro cytotoxicity (WST-1 cell viability); type: cell-based
Description: (§5) Cytotoxic evaluation was performed by seeded cells for 24 h prior to the addition of the therapeutic compound. Cells were incubated for 48 h (37° C.) with different dilutions of the therapeutic compound. Cell viability was then assessed using the WST-1 assay (Roche). The results are expressed as mean cytotoxic concentrations (IC50 value or molar concentration that inhibits 50% of cell viability) that were estimated from sigmoid regression, using Graph Pad Prism 3.02 software.
NCI-H460 (ATCC#: HTB-177): human epithelial lung carcinoma cells. Cells were cultured in RPMI 1640+glutamax and 10% of fetal bovine serum. Cells were plated at a density of 10,000 cells/well in 96-well plates.

[9] = tested on: HCT 116 human epithelial colon carcinoma cells; assay: cells; type: cell-based
Description: as §5
HCT 116 (ATCC #: CCL-247): human epithelial colon carcinoma cells. Cells were cultured in Mc Coy's 5a medium+1.5 mM L-glutamine and 10% fetal bovine serum. Cells were plated at a density of 8000 cells/well in 96-well plates.

[10] = Solubility in water
[11] = Table 14, 10-Hydroxycamptothecin conjugates, read-out: Dog Plasma Half life time
[12] = Table 14, 10-Hydroxycamptothecin conjugates, read-out: Human Plasma Half life time

## CC[C@H](C)[C@H](NC(=O)[C@H](CCCCN)NC(=O)[C@@H](NC(=O)[C@H](CCC(N)=O)NC(=O)[C@H](CCCNC(=N)N)NC(=O)[C@@H](N)CSC1CC(=O)N(CCC(=O)Oc2ccc3nc4c(cc3c2)Cn2c-4cc3c(c2=O)COC(=O)[C@]3(O)CC)C1=O)[C@@H](C)CC)C(=O)N[C@@H](Cc1c[nH]c2ccccc12)C(=O)N[C@@H](Cc1ccccc1)C(=O)N[C@@H](CCC(N)=O)C(=O)N[C@@H](CC(N)=O)C(=O)N[C@@H](CCCNC(=N)N)C(=O)N[C@@H](CCCNC(=N)N)C(=O)N[C@@H](CCSC)C(=O)N[C@@H](CCCCN)C(=O)N[C@@H](Cc1c[nH]c2ccccc12)C(=O)N[C@@H](CCCCN)C(=O)N[C@@H](CCCCN)C(=O)O (stereo partly shown) [reference compound]
[1]; [11]
  half-life: 6 min
[2]; [12]
  half-life: < 3 min
[3]
  half life time (stability) in human serum: less than three

## CCc1c2c(nc3ccc(OC(=O)CCCCCN4C(=O)CC(SC[C@H](N)C(=O)N[C@H](C(=O)N[C@@H](CCCCN)C(=O)N[C@@H](CCCNC(=N)N)C(=O)NCC(=O)N[C@@H](CC(C)C)C(=O)N[C@@H](CCCCN)C(=O)N[C@@H](CC(C)C)C(=O)N[C@@H](CCCNC(=N)N)C(=O)N[C@@H](Cc5c[nH]cn5)C(=O)N[C@H](C(=O)N[C@@H](CCCNC(=N)N)C(=O)N5CCC[C@H]5C(=O)N[C@@H](CCCNC(=N)N)C(=O)N[C@H](C(=O)N[C@H](C(=O)N[C@@H](CCCNC(=N)N)C(=O)N[C@@H](CCSC)C(=O)N[C@@H](CC(=O)O)C(=O)N[C@H](C(=O)O)C(C)C)[C@@H](C)O)C(C)C)C(C)C)C(C)C)C4=O)cc13)-c1cc3c(c(=O)n1C2)COC(=O)[C@]3(O)CC (stereo partly shown) [DPV1047-MIC-SN38] (H-C(X1)VKRGLKLRHVRPRVTRMDV-OH)
[4]; beagle dog, i.v. infusion
  MTD as mg equivalent of SN38: 6.5-9.1 mg equivalent of SN38
[4]; dog, 70 mg/kg
  WBC depletion: 94%
  signs of toxicity: gastro-intestinal toxicity, diarrhea and emesis
[4]; dog, i.v. infusion, 10 mg/kg
  Reduction in WBC at D5 (%): −44%
  Toxic signs Day 1: None
  Toxic signs Following Days: None
[4]; dog, i.v. infusion, 20 mg/kg
  Reduction in WBC at D5 (%): −57%
  Toxic signs Day 1: None
  Toxic signs Following Days: None
[4]; dog, i.v. infusion, 40 mg/kg
  Reduction in WBC at D5 (%): −69%
  Toxic signs Day 1: None
  Toxic signs Following Days: None
[4]; dog, i.v. infusion, 50 mg/kg
  Reduction in WBC at D5 (%): −53%
  Toxic signs Day 1: None
  Toxic signs Following Days: None
[4]; dog, i.v. infusion, 70 mg/kg
  Reduction in WBC at D5 (%): −94%
  Toxic signs Day 1: Vomit
  Toxic signs Following Days: Liquid feces D4
[4]; dog, in vivo, iv
  MTD: 50 to 70 mg/kg
[4]; dogs, 10, 20, 40 and 50 mg/kg
  clinical signs: no clinical signs
[1]; DPV1047-linker-SN38, 2.55 μM, citrated plasma, read-out: Half life time, Dog plasma
  half-life: 36 min
[2]; DPV1047-linker-SN38, 2.55 μM, citrated plasma, read-out: Half life time, Human plasma
  half-life: 6 to 7 min
[5]; time to 50% by mole free SN38 released, read-out: Half life time, Mouse plasma
  half-life: < 3 min
[5]; monkey
  half-life: 8 min
[5]; rat
  half-life: 3 min
[6]
  SN38 Cmax and AUC versus dose of the conjugate: increased linearly with the dose

## CCc1c2c(nc3ccc(O)cc13)-c1cc3c(c(=O)n1C2)COC(=O)[C@]3(O)CC [SN38, 7-ethyl-10-hydroxy-camptothecin, reference compound]
[7]
  fold more active than irinotecan as an anti-proliferative agent: at least 2000 fold
[8]; Table 11, 48-h continuous exposure, mean of three independent experiments, read-out: Drug concentration that inhibits 50% of cell viability (IC50), NCI-H460
  IC50: 22 nM
[9]; Table 11, 48-h continuous exposure, mean of three independent experiments, read-out: Drug concentration that inhibits 50% of cell viability (IC50), HCT 116
  IC50: 7 nM
[10]
  solubility in water: ≤ 5 µg/mL

## CC[C@@]1(O)C(=O)OCc2c1cc1n(c2=O)Cc2cc3cc(OC(=O)[C@H]4CC[C@H](CNC(=O)C5CCC(CN6C(=O)CC(SC[C@H](N)C(=O)N[C@H](C(=O)N[C@@H](CCCCN)C(=O)N[C@@H](CCCNC(=N)N)C(=O)NCC(=O)N[C@@H](CC(C)C)C(=O)N[C@@H](CCCCN)C(=O)N[C@@H](CC(C)C)C(=O)N[C@@H](CCCNC(=N)N)C(=O)N[C@@H](Cc7c[nH]cn7)C(=O)N[C@H](C(=O)N[C@@H](CCCNC(=N)N)C(=O)N7CCC[C@H]7C(=O)N[C@@H](CCCNC(=N)N)C(=O)N[C@H](C(=O)N[C@H](C(=O)N[C@@H](CCCNC(=N)N)C(=O)N[C@@H](CCSC)C(=O)N[C@@H](CC(=O)O)C(=O)N[C@H](C(=O)O)C(C)C)[C@@H](C)O)C(C)C)C(C)C)C(C)C)C6=O)CC5)CC4)ccc3nc2-1 (stereo partly shown) [DPV1047-linker #5-10 Hydroxycamptothecin] (H-C(X4)VKRGLKLRHVRPRVTRMDV-OH; N-terminus and C-terminus assumed)
[1]; [11]
  half-life: 180 min
[2]; [12]
  half-life: 214 min
[8]; 48 h
  IC50: 112 nM
[9]; 48 h
  IC50: 185 nM
